Measured values reported in patent US20210292393A1 (published 2021).

Columns and labels:
[1] = target: SARS-CoV spike protein (full-length trimeric, conjugated to optically encoded beads) (SARS-CoV, UniProt P59594 14-1190)
[2] = target: SARS-CoV-2 full-length spike protein on pseudotyped lentivirus (SARS-CoV-2, UniProt P0DTC2 14-1273); test: cell-based or functional assay
[3] = target: spike protein of SARS-CoV-2 clinical isolate USA/WA/1/2020 (live virus) (SARS-CoV-2, UniProt P0DTC2 14-1273); test: cell-based or functional assay
[4] = target: SARS-CoV-2 spike protein (wild type), spike protein trimer (SARS-CoV-2, UniProt P0DTC2 14-1208)

Row | Binder | fold over isotype control (median fluorescence intensity) [1] [fold over isotype] | Pseudo-neutralization IC50 [2] [µg/mL] | Live Virus Neutralization IC50 [3] [µg/mL] | Kd [4] [pM]
1 | antibody 563 (antibody, V domains shown) VH: QVQLVESGGGVVQPGRSLRLSCAASGFTFSSYAMHWVRQAPGKGLEWVAVISDDGSNKYYADSVKGRFTISRDNSKNTLYLQMNSLRAEDTAVYYCARDIVATIRRLFDYWGQGTLVTVSS VL: not shown | 35.4 | – | – | –
2 | antibody 576 (antibody, V domains shown) VH: QVQLVESGGGVVQPGRSLRLSCAASGFTFSSYAMHWVRQAPGKGLEWVAVISYDGSNKYYADSVKGRFTISRDNSKNTLYLQMNSLRAEDTAVYYCAKAGGGSYYRGFDYWGQGTLVTVSS VL: DIQLTQSPSFLSASVGDRVTITCRASQGISSYLAWYQQKPGKAPKLLIYAASTLQSGVPSRFSGSGSGTEFTLTISSLQPEDFATYYCQQLNSYPTFGPGTKVDIK | 6.87 | – | – | –
3 | antibody 560 (antibody, V domains shown) VH: EVQLVESGGGLVQPGGSLRLSCAASGFTISSNYMSWVRQAPGKGLEWVSVIYSGGSTYYADSVKGRFTISRDNSKNTLYLQMNSLRAEDTAVYYCAREEGEWEKDYYGMDVWGQGTTVTVSS VL: not shown | 1.14 | – | – | –
4 | antibody 569 (antibody, V domains shown) VH: QVQLVESGGGVVQPGRSLRLSCAASGFTFSSYAMHWVRQAPGKGLEWVAVISYDGSNKYYADSVKGRFTISRDNSKNTLYLQMNSLRAEDTAVYYCARASSGGYQGPFDPWGQGTLVTVSS VL: EIVLTQSPATLSLSPGERATLSCRASQSVSSYLAWYQQKPGQAPRLLIYDASNRATGIPARFSGSGSGTDFTLTISSLEPEDFAVYYCQQRSSPFGPGTKVDIK | 3.31 | – | – | –
5 | anti-SARS-CoV-2 antibody 989 (antibody, V domains shown) VH: QVQLQESGPGLVKPSQTLSLTCTVSGGSISSGSYYWSWIRQPAGKGLEWIGRIYTSGSTNYNPSLKSRVTMSVDTSKNHFSLKLRSVTAADTAVYYCARGIAVAGDDDYYYYYGLDVWGQGTTVTVSS VL: SYELTQPPSVSVSPGQTARITCSGDALPKQYAYWYQQKPGQAPVMVINKDSERPSGIPERFSGSSSGTTVTLTISGVQAEDEADYYCHSADSSGTYWVFGGGTKLTVL | – | 0.19 | 1.5 | 104
6 | antibody 571 (antibody, V domains shown) VH: EVQLVESGGGLVQPGGSLRLSCAASGFTFSTYWMTWVRQAPGKGLEWVANIKHDGSGKYHVDSVKGRFTISRDNAKNSLYLQMNSLRAEDTAVYYCTRDEGGWYDYWGQGTLVTVSS VL: QSALTQPASVSGSPGQSITISCTGTSSDVGSYNPVSWYQQHPGKAPKVMIYEGSKRPSGVSNRFSGSKSGNTASLTISGLQAEDEADYYCCSYARSSTFVVFGGGTKLTVL | 1.28 | – | – | –
7 | anti-SARS-CoV-2 antibody 966 (antibody, V domains shown) VH: QVQLVESGGGVVQPGRSLRLSCAASEFTFSSYGMHWVRQAPGKGLEWVAVISHDGSNEYYADSVKGRFTISRDNSKNTLYLQMNSLRAEDTAVYYCAKWRGPHRGYYDRSGYYLGSSRDDYWGQGTLVTVSS VL: not shown | – | 0.021 | > 10 | 1800
8 | antibody 564 (antibody, V domains shown) VH: QVHLVESGGGVVQPGKSLRLSCAASGFIFSSFGMHWVRQPPGKGLEWLAVVSYDGSVTKYSDSFEGRFTISRDNSKNTLYLQMDSLRPEDTAVYYCAKGQGTNLLHYWGQGILVTVSS VL: DVVLSQSPLSLPVTLGQPASISCRSSESLVYTDGDTYLHWFHQRPGQSPRRLIFKVSHRESGVPDRISGSGSGTDFTLKISRVEAEDVGVYYCMQGTHWPFTFGPGTKVDIK | 37.3 | – | – | –
9 | antibody 566 (antibody, V domains shown) VH: QVQLVQSGAEVKKPGASVKVSCKASGYTFTSYAMHWVRQAPGQRLEWMGWINAGNGNTKYSQKFQGRVTITRDTSASTAYMELSSLRSEDTAVYYCARDLGVAVTLHPADFDYWGQGTLVTVSS VL: QSVLTQPPSVSGAPGQRVTISCTGSSSNIGAGYDVHWYQQLPGTAPKLLIYDNSNRPSGVPDRFSGSKSGTSASLAITGLQAEDEADYYCQSYDSSLSAVVFGGGTKLTVL | 0.97 | – | – | –
